Source: PMC8041770, “An engineered ligand trap inhibits leukemia inhibitory factor as pancreatic cancer treatment strategy” (Communications Biology, 2021)

Molecular target: yeast-displayed mouse LIF (mLIF, Ser24 to Phe203) (mouse, UniProt P09056 24-203)
Experiment: flow cytometry on cells; LIF displayed on yeast (EBY100), soluble Fc fusion titrated in PBS with 1 mg/ml BSA, Fc detected with fluorescent secondary antibody; apparent Kd by non-linear regression
Conditions: one partner purified

Kd: 0.16 ± 0.02 nM
B1: mLIFR-Fc (mouse LIFR CBM I–Ig-like–CBM II fused to an antibody Fc domain) (Fc fusion)
chain: LKRGVQDLKCTTNNMRVWDCTWPAPLGVSPGTVKDICIKDRFHSCHPLETTNVKIPALSPGDHEVTINYLNGFQSKFTLNEKDVSLIPETPEILDLSADFFTSSLLLKWNDRGSALPHPSNATWEIKVLQNPRTEPVALVLLNTMLSGKDTVQHWNWTSDLPLQCATHSVSIRWHIDSPHFSGYKEWSDWSPLKNISWIRNTETNVFPQDKVVLAGSNMTICCMSPTKVLSGQIGNTLRPLIHLYGQTVAIHILNIPVSENSGTNIIFITDDDVYGTVVFAGYPPDVPQKLSCETHDLKEIICSWNPGRITGLVGPRNTEYTLFESISGKSAVFHRIEGLTNETYRLGVQMHPGQEIHNFTLTGRNPLGQAQSAVVINVTERVAPHDPTSLKVKDINSTVVTFSWYLPGNFTKINLLCQIEICKANSKKEVRNATIRGAEDSTYHVAVDKLNPYTAYTFRVRCSSKTFWKWSRWSDEKRHLTTEAT
notes: signal peptide in the construct; mouse LIF receptor (mLIFR), three most N-terminal extracellular domains CBM I–Ig-like–CBM II, Met1 to Thr529; also called soluble mLIFR-Fc; mLIFR mIgG2a Fc; source: Expi293F, transfected (pAdd2), purified from medium (Protein-A Sepharose)
